Laboratory results: the supplement of paper PMC9876800

Tested on: peptide library, one residue held at a place counted from the S/T acceptor
Experiment: relative phosphorylation of the sub-library (ratio to the mean residue at this position); higher = residue favoured
Conditions: human
How it was run: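 Purified recombinant kinases (human or orthologue constructs) were incubated in 384-well plates with biotinylated degenerate peptide sub-libraries, each fixing one residue at one position around a central Ser/Thr. Peptides were at 50 μM, with 50 μM ATP spiked with γ-32P-ATP, for 90 min under kinase-specific conditions. Spots on streptavidin membranes were phosphorimaged and quantified by densitometry. Relative sub-library phosphorylation is a ratio to the mean residue at that position.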

Chain of FAM20C, construct: aa23-end (Q8IXL6 23-584, looked up): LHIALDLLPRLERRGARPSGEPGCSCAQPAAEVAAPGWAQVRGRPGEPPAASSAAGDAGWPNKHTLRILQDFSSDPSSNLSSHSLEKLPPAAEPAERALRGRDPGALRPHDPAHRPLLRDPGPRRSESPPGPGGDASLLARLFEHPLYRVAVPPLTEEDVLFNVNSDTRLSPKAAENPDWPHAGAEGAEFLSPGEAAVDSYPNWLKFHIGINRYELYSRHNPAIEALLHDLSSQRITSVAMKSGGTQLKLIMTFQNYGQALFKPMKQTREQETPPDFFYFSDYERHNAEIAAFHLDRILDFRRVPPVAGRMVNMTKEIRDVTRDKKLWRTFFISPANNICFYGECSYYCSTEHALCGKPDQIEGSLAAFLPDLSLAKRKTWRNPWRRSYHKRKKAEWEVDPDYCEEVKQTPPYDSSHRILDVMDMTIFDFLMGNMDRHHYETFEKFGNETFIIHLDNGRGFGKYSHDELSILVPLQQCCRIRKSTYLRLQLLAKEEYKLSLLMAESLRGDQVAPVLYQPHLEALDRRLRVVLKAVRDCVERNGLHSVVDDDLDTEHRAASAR
Chain of HIPK2, construct: aa153-564 (Q9H2X6 153-564, looked up): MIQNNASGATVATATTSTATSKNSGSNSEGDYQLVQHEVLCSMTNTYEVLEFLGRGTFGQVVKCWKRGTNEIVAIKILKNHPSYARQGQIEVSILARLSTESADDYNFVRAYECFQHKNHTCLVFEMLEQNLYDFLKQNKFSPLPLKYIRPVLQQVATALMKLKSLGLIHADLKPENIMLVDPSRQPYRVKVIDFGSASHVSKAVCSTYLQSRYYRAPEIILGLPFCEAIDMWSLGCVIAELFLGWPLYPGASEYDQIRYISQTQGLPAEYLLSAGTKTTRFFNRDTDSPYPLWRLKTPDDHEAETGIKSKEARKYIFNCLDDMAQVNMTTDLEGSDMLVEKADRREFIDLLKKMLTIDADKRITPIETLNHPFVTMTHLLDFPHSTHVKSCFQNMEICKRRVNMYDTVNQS
Chain of HIPK3, construct: aa161-562 (Q9H422 161-562, looked up): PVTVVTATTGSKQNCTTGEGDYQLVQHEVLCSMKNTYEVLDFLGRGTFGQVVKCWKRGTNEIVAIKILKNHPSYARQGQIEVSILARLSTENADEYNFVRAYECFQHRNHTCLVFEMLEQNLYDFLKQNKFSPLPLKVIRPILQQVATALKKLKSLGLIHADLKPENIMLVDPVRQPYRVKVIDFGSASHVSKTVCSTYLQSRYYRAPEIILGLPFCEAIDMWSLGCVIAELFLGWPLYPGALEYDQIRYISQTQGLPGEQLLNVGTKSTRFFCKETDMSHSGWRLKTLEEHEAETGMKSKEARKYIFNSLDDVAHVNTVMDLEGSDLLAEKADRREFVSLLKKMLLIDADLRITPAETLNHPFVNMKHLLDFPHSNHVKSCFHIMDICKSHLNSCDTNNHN

EIF2AK2, construct: aa252-end (from UniProt P19525)
relative phosphorylation
Conditions	at +1	at +2	at +3	at +4	at -1	at -2	at -3	at -4	at -5
A fixed	0.837	0.775	0.867	0.96	0.739	1.04	0.961	1.13	1.13
D fixed	0.526	0.705	0.665	0.818	0.726	0.939	1.13	1.05	0.979
E fixed	0.509	0.688	0.599	0.844	0.64	0.912	1.18	0.954	0.945
F fixed	0.695	0.616	1.02	0.701	0.681	0.989	0.774	1.06	0.853
G fixed	1.12	1.55	1.46	1.23	0.724	0.999	1.51	1.13	1.21
H fixed	0.762	1.2	1.16	1.24	1.21	1.14	0.95	1.02	1.07
I fixed	1.01	0.648	0.9	1.04	1.16	0.793	0.89	0.805	0.995
K fixed	1.93	1.5	1.76	1.36	1.93	1.03	1.11	1.15	1.15
L fixed	1.01	0.541	0.896	0.73	0.915	1.32	0.779	0.815	0.767
M fixed	1.25	0.643	0.779	0.935	1.03	1.01	0.961	0.868	0.884
N fixed	1.04	1.78	0.876	0.972	1.18	1.2	0.99	0.937	1
P fixed	0.4	0.644	0.966	0.815	0.648	0.963	0.969	0.954	0.93
Q fixed	1.22	0.845	0.925	0.811	0.95	1.02	0.855	0.92	0.855
R fixed	2.57	2.68	1.7	1.75	1.97	1.09	1.5	1.21	1.41
V fixed	0.897	0.708	0.798	0.812	1.07	0.863	0.819	0.875	0.824
W fixed	0.637	0.715	0.863	1.06	0.64	0.87	0.804	1.24	0.947
Y fixed	0.585	0.757	0.768	0.927	0.771	0.818	0.821	0.878	1.05
pThr fixed	0.58	0.605	0.729	0.854	0.677	0.853	1.04	0.992	0.947
pTyr fixed	0.489	0.897	0.717	0.853	0.629	0.933	0.955	0.735	0.968

FAM20C, construct: aa23-end (from UniProt Q8IXL6)
relative phosphorylation
Conditions	at +1	at +2	at +3	at +4	at -1	at -2	at -3	at -4	at -5
A fixed	1.77	0.243	0.795	0.935	1.27	1.28	0.91	1.14	1.14
D fixed	1.03	0.708	2.21	1.67	2.77	1.99	1.61	1.68	1.46
E fixed	2.15	13	2.58	1.91	1.4	1.19	1.66	1.52	1.31
F fixed	0.537	0.173	0.624	0.825	0.423	0.95	0.693	0.737	1.04
G fixed	1.61	0.214	0.518	1.45	1.31	1.28	1.45	1.26	1.05
H fixed	1.39	0.25	0.863	0.874	1.29	1.08	0.95	1.02	1.43
I fixed	0.52	0.155	1.13	1.02	0.468	0.663	0.619	0.789	0.751
K fixed	0.822	0.185	0.516	0.607	0.589	0.647	0.719	0.745	0.896
L fixed	0.54	0.159	1.07	0.788	0.485	0.581	0.968	0.826	0.832
M fixed	1.11	0.205	0.884	0.92	0.555	0.673	0.851	0.887	0.761
N fixed	1.08	0.277	0.845	0.806	2.19	1.8	1.2	1.08	1.14
P fixed	0.253	0.18	0.252	0.777	0.303	1.11	1.01	1.06	0.843
Q fixed	1.26	0.454	1.17	0.863	0.934	0.809	1.07	0.997	0.907
R fixed	0.958	0.2	0.603	0.571	0.685	0.612	0.918	0.75	0.809
V fixed	0.618	0.179	1.36	1.02	0.808	0.701	0.682	0.876	0.959
W fixed	0.696	0.208	0.831	1.05	0.839	0.795	0.861	0.895	1.01
Y fixed	0.65	0.199	0.76	0.913	0.681	0.851	0.835	0.736	0.66
pThr fixed	0.641	0.744	1.28	3.06	0.797	1.09	1.49	1.38	1.05
pTyr fixed	0.699	1.02	2.15	2.74	1.08	1.96	1.64	1.1	1.19

HIPK2, construct: aa153-564 (from UniProt Q9H2X6)
relative phosphorylation
Conditions	at +1	at +2	at +3	at +4	at -1	at -2	at -3	at -4	at -5
A fixed	0.477	1.23	0.93	0.869	1.32	2.32	0.857	1.07	1.08
D fixed	0.109	0.923	0.689	0.906	0.483	0.281	0.703	0.956	0.993
E fixed	0.125	0.509	0.582	0.75	0.514	0.284	0.592	1	0.893
F fixed	0.151	1.2	0.766	1.12	0.482	0.32	0.261	0.575	0.814
G fixed	0.628	1.64	1.4	1.16	1.16	0.943	1.33	1.24	1.09
H fixed	0.224	1.34	1.08	1.01	0.948	0.387	0.658	0.899	1.09
I fixed	0.225	0.631	0.649	0.95	0.397	0.66	0.279	0.562	0.686
K fixed	0.284	1.2	0.738	1.04	1.98	0.671	1.2	1.05	1.1
L fixed	0.189	0.634	0.803	0.839	0.578	0.621	0.361	0.69	0.754
M fixed	0.183	0.765	0.742	0.901	0.782	0.543	0.326	0.72	0.652
N fixed	0.235	1.02	0.953	0.878	0.843	0.739	0.784	0.887	0.971
P fixed	11.5	1.46	3.51	1.06	1.95	4.16	1.06	2.04	1.49
Q fixed	0.251	0.766	0.971	1.11	1.35	0.569	0.821	0.977	0.993
R fixed	1.6	1.22	0.914	0.993	2.33	2.9	6.74	2.38	1.72
V fixed	0.481	0.722	0.677	1.01	0.65	0.949	0.34	0.574	0.716
W fixed	0.161	0.951	0.852	1.3	0.624	0.304	0.348	0.655	0.782
Y fixed	0.163	0.79	0.741	1.11	0.604	0.347	0.35	0.727	1.16
pThr fixed	0.283	0.441	0.615	0.816	0.423	1.04	0.734	1.27	1.23
pTyr fixed	0.251	0.431	0.989	1.15	0.614	0.375	0.628	1.01	1.19

HIPK3, construct: aa161-562 (from UniProt Q9H422)
relative phosphorylation
Conditions	at +1	at +2	at +3	at +4	at -1	at -2	at -3	at -4	at -5
A fixed	0.905	1.05	1.03	0.883	1.43	2.27	1.26	1.07	0.866
D fixed	0.116	0.665	0.422	0.718	0.435	0.171	0.37	0.534	0.617
E fixed	0.135	0.371	0.338	0.569	0.46	0.158	0.375	0.63	0.608
F fixed	0.541	1.27	0.965	1.07	0.843	0.617	0.713	1.33	1.32
G fixed	0.8	1.07	0.954	1.02	1.07	0.734	1.06	0.962	0.863
H fixed	0.422	1.3	0.962	1.05	0.765	0.465	0.687	0.859	1.03
I fixed	0.656	0.842	1.26	1.17	1.07	1.24	0.682	1.05	0.913
K fixed	0.324	1.33	0.598	1.1	1.12	0.745	0.858	1.01	1.1
L fixed	0.553	1.02	1.05	0.844	0.932	0.757	0.586	0.842	1.15
M fixed	0.706	1.34	1.2	1.05	1.17	0.835	0.752	1.09	0.951
N fixed	0.21	0.801	0.714	0.894	0.585	0.528	0.481	0.545	0.771
P fixed	8.32	0.967	2.43	1.1	1.52	2.41	0.72	1.04	1.17
Q fixed	0.273	0.703	0.762	1.01	0.907	0.626	0.679	0.799	0.984
R fixed	1.5	1.52	1.12	1.36	2.1	3.19	6.13	2.47	1.8
V fixed	0.649	0.847	1.22	0.951	0.929	1.2	0.614	0.918	0.812
W fixed	0.535	1	0.97	1.16	0.76	0.568	0.553	0.896	0.789
Y fixed	0.351	0.895	0.998	1.05	0.913	0.492	0.482	0.956	1.25
pThr fixed	0.236	0.362	0.387	0.458	0.427	0.737	0.512	0.745	0.925
pTyr fixed	0.283	0.331	0.529	0.601	0.585	0.296	0.624	0.7	0.939
